# Results: PMC7515630, “Optogenetic activation of heterotrimeric G-proteins by LOV2GIVe, a rationally engineered modular protein” (eLife, 2020)
# B1: His-Gαi3 (rat) (natural protein, UniProt P08753 1-354, looked up)
# chain: MGCTLSAEDKAAVERSKMIDRNLREDGEKAAKEVKLLLLGAGESGKSTIVKQMKIIHEDGYSEDECKQYKVVVYSNTIQSIIAIIRAMGRLKIDFGEAARADDARQLFVLAGSAEEGVMTSELAGVIKRLWRDGGVQACFSRSREYQLNDSASYYLNDLDRISQTNYIPTQQDVLRTRVKTTGIVETHFTFKELYFKMFDVGGQRSERKKWIHCFEGVTAIIFCVALSDYDLVLAEDEEMNRMHESMKLFDSICNNKWFTDTSIILFLNKKDLFEEKIKRSPLTICYPEYTGSNTYEEAAAYIQCQFEDLNRRKDTKEVYTHFTCATDTKNVQFVFDAVTDVIIKNNLKECGLY
# notes: rat Gαi3, G-protein alpha subunit i3; kept with GDP in the buffers; also called pET28b-Gαi3; source: E. coli BL21(DE3), purified (HisPur cobalt resin, desalting)
# Target: T1, GST-LOV2GIV (L) (Avena sativa | , FMN chromophore. GST omitted. The exact sequence and junction are in Supplementary file 1, so limits are by convention: AsLOV2 404-546 and the UniProt GBA motif. The paper's GIV numbering is the displ)
# T1 chain: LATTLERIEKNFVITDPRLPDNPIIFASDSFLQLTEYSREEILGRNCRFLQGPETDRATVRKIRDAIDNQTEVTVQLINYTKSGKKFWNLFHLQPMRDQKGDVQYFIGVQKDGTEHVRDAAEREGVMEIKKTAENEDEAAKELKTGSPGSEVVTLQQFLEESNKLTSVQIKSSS
# Assay: pull-down; ~20 µg purified GST-fused construct on glutathione-agarose beads, 3 µg (~300 nM) purified His-tagged Gα; 4 hr at 4°C in 50 mM Tris-HCl pH 7.4, 100 mM NaCl, 0.4% NP-40, 10 mM MgCl2, 5 mM EDTA, 1 mM DTT, 30 µM GDP; immunoblot for His
# Details: both partners purified
binder,measurement,value
B1,"fold binding over the dark conformation, LOV2GIV (D)",~3 fold
